According to patent publication US20250051463A1, “CD123 ANTIBODY-DRUG CONJUGATES AND METHODS OF USING THE SAME” (ASTRAZENECA AB, priority 2023, published 2025):

Test system: healthy donor BMMC
Assay: Colony forming unit (CFU) assay
Type: cell-based, human
Conditions: 24 hours treatment, colonies at 14 days
Procedure: The potency of HT12-GL ADC (HT12-GL-SG3932) was compared to CD33 Mylotarg ADC and isotype ADC in colony forming unit (CFU) assays. For colony forming unit assays, primary healthy donor samples and AML patient samples were subjected to a dose titration of HT12-GL ADC (HT12-GL-SG3932), Isotype ADC, or Mylotarg for 24 hours. Cells were subsequently mixed in Methocult (StemCell) and seeded in 6-well SmartDish's (StemCell). Colonies were counted at 14 days post-seeding using a STEMvision instrument (StemCell). EC50 values were calculated based on the reduction of colonies following drug treatment compared to control groups.

Mylotarg: CD33 ADC Mylotarg [reference compound]
CFU toxicity in healthy donor BMMC: toxic
